Experimental data from article PMC314469, “Protein Interaction Networks by Proteome Peptide Scanning” (PLoS Biology, 2004).

T1: amphyphisin SH3 (AMPH_HUMAN), P49418
T1 chain: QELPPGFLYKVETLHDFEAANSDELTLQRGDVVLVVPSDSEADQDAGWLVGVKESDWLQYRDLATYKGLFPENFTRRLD


Tests used:
[1] = target: endophilin SH3 (SH3G2_HUMAN), Q99962; assay: SPOT array
[2] = target: T1, amphyphisin SH3 (AMPH_HUMAN), P49418; assay: SPOT array

Binder | normalised SPOT signal, Boehringer light units (BLU); mean over the file's lines of this peptide [1] | normalised SPOT signal, Boehringer light units (BLU); mean over the file's lines of this peptide [2]
VLALPGKPPFLTQL [P05771 392-406] | 474 | 57.3
SKAYPKRPLLGLVL [Q9GZR7 380-393] | 385 | 12.5
VPKPPPKPPSPPAP [P17405 180-194] | 352 | 71.9
VMARLSRPERPDLV [Q9HCS7 3-16] | 1160 | 1410
VLLPPPRPTRKRSL [Q9P2L7 767-780] | 7360 | 8360
VMASLRRPKRIIIR [P78527 3728-3741] | 177 | 743
VNVVFRRPLRPADP [Q96FY0 68-81] | 266 | 768
VLAELPRPRRPPLQ [Q9NSY0 101-114] | 244 | 596
VLDFPRRPPWSYEM [Q96CT5 125-139] | 397 | 53.9
VPMPIARPARQTSR [Q9Y6R4 202-215] | 1680 | 9590
VLTALRRPARSSWH [Q8WW71 300-313] | 395 | 1860
VNLKLRRPSFRDDI [O00467 301-314] | 60.4 | 60.6
VKPGLRRPPASPAL [Q05215 182-195] | 34.9 | 32.8
VLLKLRRPVVGSSE [Q14596 255-268] | 233 | 32.8
VKMQLRRPSDQEVS [Q04864 259-272] | 382 | 81.1
SKKGFRRPSEKNQH [P17010 781-794] | 32 | 33.1
VPGDPRRPYPTDLE [Q9NPJ6 168-181] | 39.7 | 11.9

Second part, the binder after the results:

normalised SPOT signal, Boehringer light units (BLU); mean over the file's lines of this peptide [1] | normalised SPOT signal, Boehringer light units (BLU); mean over the file's lines of this peptide [2] | Binder
1190 | 45.5 | VMQSLRRPSSSGSS [O60269 443-456]
21900 | 23100 | VLPPPPRPPQRRSR [BAC05199 62-76]
303 | 475 | VLPKFPRPVRTQEQ [Q92543 889-902]
144 | 40.2 | VKLLIRRPESFGPA [Q15413 2218-2231]
592 | 1730 | VPLPPARPPTRDNP [Q13191 775-789]
6270 | 253 | VNRPLVRPQKRLSS [Q9BWX5 222-235]
114 | 34.8 | VNIVPKKPPLLDRP [Q96NB9 30-44]
3.4 | 19.8 | VNEGPPKPPTELEP [AAH32298 448-462]
5.5 | 1.1 | VLGVLRRPLEAPPE [Q03169 136-149]
142 | 9 | VNRGPKRPKVLQRG [Q9UDR8 470-483]
107 | 167 | VKRRPGRPRKSPLQ [Q9NR48 1846-1859]
8910 | 609 | SISKPERPMKFLRE [P31321 38-51]
205 | 138 | VLAEIPRPLKRRGS [Q9Y290 36-49]
58.9 | 43.5 | VLQHLRRPVALQLD [Q9HC29 785-798]
